The values that follow come from patent US20190330337A1, “Tunable Chimeric Antigen Receptors” (AUTOLUS LIMITED, priority 2016, published 2019).

Entries after “also recorded” stand apart in the source; their conditions may differ.

For assay [1], the target named is streptavidin (Streptomyces avidinii, UniProt P22629). The settings on record: biotin mimicking peptide binding streptavidin; read-out: affinity; cited from earlier work.
The subject of assay [2] is SupT1 cells engineered to express CD33. Nature of the assay: Activation of TetCAR BW5 T-cells challenged with SupT1 cells expressing CD33. Format: cell-based. An excerpt:
A bicistronic construct was expressed in BW5 T cells as a single transcript which self-cleaves at the 2A site to yield a signalling component which comprises TiP fused via a flexible linker to the endodomain of CD3-Zeta; and a receptor component which comprises a CD33 recognizing scFv, a spacer derived from the Fc domain of IgG1, a CD4 derived transmembrane and intracellular domain; and TetR (FIG. 19a). A control was also expressed which was identical except that TiP was absent from the signalling component (FIG. 19b).
The BW5 T-cells were challenged with wild-type SupT1 cells or SupT1 cells engineered to express CD33 in the absence of tetracycline or in the presence of increasing concentrations of tetracycline.
Control TetCAR which lacks the TiP domain was also transduced into BW5. Once again, these T-cells were challenged with wild-type SupT1 cells or SupT1 cells engineered to express CD33 in the absence or in the presence of increasing concentration of Tetracycline.

In assay [3] the target is CD19 (human) (UniProt P15391). Put plainly: SPR (Biacore T200), scFv-Fc captured on anti-IgG CM5 chip, interaction partner protein injected, 1:1 Langmuir fit.
Chain of CD19 (human) (P15391 20-291 limits assumed): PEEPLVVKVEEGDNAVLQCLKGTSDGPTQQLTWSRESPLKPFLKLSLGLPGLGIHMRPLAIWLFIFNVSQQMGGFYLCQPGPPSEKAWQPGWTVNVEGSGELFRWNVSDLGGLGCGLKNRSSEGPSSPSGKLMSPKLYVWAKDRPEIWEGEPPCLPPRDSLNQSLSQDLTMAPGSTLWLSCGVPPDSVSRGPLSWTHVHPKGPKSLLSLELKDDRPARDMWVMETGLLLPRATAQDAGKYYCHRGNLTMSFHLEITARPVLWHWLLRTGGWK
In assay [4] the target is T1, CD22 (Homo sapiens, UniProt P20273). The assay is described as above.
In assay [5] the target is T1, CD22. Put plainly: Biacore affinity determination of CD22 binders. Type of assay: binding. Particulars: scFv format, FIG. 6, result in words. How it is done:
A CD19-binder (CD19ALAb) was identified, humanised and the binding affinities of both murine and humanised IgGs and scFvs were identified and compared with the “gold-standard” anti-CD19 binder, fmc63. In parallel, and a CD22-binder (CD22ALAb) was identified, humanised and the binding affinities of both murine and humanised IgGs and scFvs were identified and compared with the “gold-standard” anti-CD22 binder, M971.
Experiments were performed on a Biacore T200 instrument using HBS-P as running and dilution buffer. BIAevaluation software Version 2.0 was used for data processing. For binding kinetics, mouse anti-human IgG or goat anti-mouse IgG was covalently coupled to a CM5 Sensor Chip. IgG or scFv-Fc proteins were captured, and various concentrations of interaction partner protein injected over the flow cell at a flow rate of 30 μl/min. Kinetic rate constants were obtained by curve fitting according to a 1:1 Langmuir binding model. Bulk refractive index differences were subtracted using a blank control flow cell in which capture antibody had been immobilized to the same level as the active surface. A double reference subtraction was performed using buffer alone.

Chain of streptavidin (P22629 37-163 limits assumed): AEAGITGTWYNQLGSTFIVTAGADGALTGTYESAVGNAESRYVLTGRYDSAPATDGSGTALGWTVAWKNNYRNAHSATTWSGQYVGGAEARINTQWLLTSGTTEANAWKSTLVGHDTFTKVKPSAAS

On to “Biotin mimicking peptide DVEAWLDERVPLVET (SEQ ID NO: 30) (Biotin mimicking peptide, long nanotag)”, for which the Kd in assay [1] is 3.6 nM. With “Biotin mimicking peptide CHPQGPPC (SEQ ID NO: 35) (Biotin mimicking peptide, ccstreptag)”, in assay [1], the Kd was 230 nM. With “Biotin mimicking peptide DVEAWLGAR (SEQ ID NO: 31) (Biotin mimicking peptide, short nanotag)”, in assay [1], the Kd was 17 nM. Take `CN(C)[C@@H]1C(O)=C(C(N)=O)C(=O)[C@@]2(O)C(O)=C3C(=O)c4c(O)cccc4[C@@](C)(O)[C@H]3C[C@@H]12` [tetracycline, reference compound]: in assay [2], the “concentration of tetracycline at which activation is fully inhibited” value was determined as 100 nM. With “Biotin mimicking peptide WRHPQFGG (SEQ ID NO: 32) (Biotin mimicking peptide, streptag)”, in assay [1], the Kd was 72000 nM.

B1: Murine CD19ALAb scFv (scFv, part only; not given: Fc part and VH-VL linker, not shown: another chain or arm of the molecule; a dimerising Fc or GST; small tags and cut ends)
scFv: QVQLQQSGAELVRPGSSVKISCKASGYAFSSYWMNWVKQRPGQGLEWIGQIWPGDGDTNYNGKFKGKATLTADESSSTAYMQLSSLASEDSAVYFCARRETTTVGRYYYAMDYWGQGTTVTVSSDIQLTQSPASLAVSLGQRATISCKASQSVDYDGDSYLNWYQQIPGQPPKLLIYDASNLVSGIPPRFSGSGSGTDFTLNIHPVEKVDAATYHCQQSTEDPWTFGGGTKLEIK
In assay [3], B1 yielded a Kd of 1.85 nM, a koff of 0.000328 s⁻¹ and an on-rate (kon) of 178000 M⁻¹ s⁻¹.

B2: Humanised CD22ALAb scFv (scFv, part only; not given: Fc part and VH-VL linker, not shown: another chain or arm of the molecule; a dimerising Fc or GST; small tags and cut ends)
scFv: EVQLVESGAEVKKPGSSVKVSCKASGYTFTNYWINWVRQAPGQGLEWIGNIYPSDSFTNYNQKFKDRATLTVDKSTSTAYLELRNLRSDDTAVYYCTRDTQERSWYFDVWGQGTLVTVSSDIVMTQSPATLSVSPGERATLSCRSSQSLVHSNGNTYLHWYQQKPGQAPRLLIYKVSNRFSGVPARFSGSGSGVEFTLTISSLQSEDFAVYYCSQSTHVPWTFGQGTRLEIK
For the molecule B2, in assay [4], the Kd was 32 nM, the koff is 0.00226 s⁻¹ and the kon is 68300 M⁻¹ s⁻¹.

B3: humanised CD22ALAb: Humanised CD22ALAb scFv, SEQ ID No. 26 (protein)
scFv: EVQLVESGAEVKKPGSSVKVSCKASGYTFTNYWINWVRQAPGQGLEWIGNIYPSDSFTNYNQKFKDRATLTVDKSTSTAYLELRNLRSDDTAVYYCTRDTQERSWYFDVWGQGTLVTVSSDIVMTQSPATLSVSPGERATLSCRSSQSLVHSNGNTYLHWYQQKPGQAPRLLIYKVSNRFSGVPARFSGSGSGVEFTLTISSLQSEDFAVYYCSQSTHVPWTFGQGTRLEIK
modifications: CAR, Humanised CD22ALAb scFv sequence
In the case of B3, in assay [5], the “binding affinity to CD22” value is reported as “comparable binding affinity to CD22 to murine CD22ALAb; also recorded: significantly higher binding affinity to CD22 than the gold-standard CD22-binding antibody, M971”.

B4: murine CD22ALAb: Murine CD22ALAb scFv, SEQ ID No. 25 (protein)
scFv: QVQLQQPGAELVRPGASVKLSCKASGYTFTNYWINWVKQRPGQGLEWIGNIYPSDSFTNYNQKFKDKATLTVDKSSSTAYMQLSSPTSEDSAVYYCTRDTQERSWYFDVWGAGTTVTVSSDVVMTQTPLSLPVSLGDQASISCRSSQSLVHSNGNTYLHWYLQKPGQSPKLLIYKVSNRFSGVPDRFSGSGSGTDFTLKISRVEAEDLGLYFCSQSTHVPWTFGGGTKLEIK
modifications: CAR, Murine CD22ALAb scFv sequence
For B4, the “binding affinity to CD22” value in assay [5] is “significantly higher binding affinity to CD22 than the gold-standard CD22-binding antibody, M971”.
